# Target: T1, Flag-tagged human PZR (UniProt O95297)
# T1 sequence: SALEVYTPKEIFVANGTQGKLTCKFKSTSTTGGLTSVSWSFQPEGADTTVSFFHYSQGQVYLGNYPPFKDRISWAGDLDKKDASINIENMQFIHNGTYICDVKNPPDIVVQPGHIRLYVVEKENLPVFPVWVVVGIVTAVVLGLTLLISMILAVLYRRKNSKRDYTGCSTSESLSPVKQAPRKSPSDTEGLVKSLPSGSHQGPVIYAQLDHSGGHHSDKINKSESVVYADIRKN
substance,measurement,value
Src recombinant protein,"in vitro Src kinase assay, immunoblot with anti-pPZR (Y241 or Y263) antibodies",These results implicated c-Src as directly phosphorylating PZR at Shp2 binding sites
